Measured values reported in US20230310602A1 (published 2023).

Legend:
[1] = target: T1, HCELL (exofucosylated CD44) on FTVII-treated human MSCs (FuchAdMSCs, adipose-derived); FuchBMMSCs, bone … (human, UniProt P16070 21-742, fucose installed in α(1,3)-linkage onto sialyllactosaminyl glycans of CD44 by fucosyltransferase VII with GDP-fucose (creates sLe^x)); experiment: cell-based or functional assay
[2] = target: T1, HCELL (exofucosylated CD44) on …; experiment: cell-based or functional assay; remark: listed apart in the source

T1 sequence (P16070 21-742): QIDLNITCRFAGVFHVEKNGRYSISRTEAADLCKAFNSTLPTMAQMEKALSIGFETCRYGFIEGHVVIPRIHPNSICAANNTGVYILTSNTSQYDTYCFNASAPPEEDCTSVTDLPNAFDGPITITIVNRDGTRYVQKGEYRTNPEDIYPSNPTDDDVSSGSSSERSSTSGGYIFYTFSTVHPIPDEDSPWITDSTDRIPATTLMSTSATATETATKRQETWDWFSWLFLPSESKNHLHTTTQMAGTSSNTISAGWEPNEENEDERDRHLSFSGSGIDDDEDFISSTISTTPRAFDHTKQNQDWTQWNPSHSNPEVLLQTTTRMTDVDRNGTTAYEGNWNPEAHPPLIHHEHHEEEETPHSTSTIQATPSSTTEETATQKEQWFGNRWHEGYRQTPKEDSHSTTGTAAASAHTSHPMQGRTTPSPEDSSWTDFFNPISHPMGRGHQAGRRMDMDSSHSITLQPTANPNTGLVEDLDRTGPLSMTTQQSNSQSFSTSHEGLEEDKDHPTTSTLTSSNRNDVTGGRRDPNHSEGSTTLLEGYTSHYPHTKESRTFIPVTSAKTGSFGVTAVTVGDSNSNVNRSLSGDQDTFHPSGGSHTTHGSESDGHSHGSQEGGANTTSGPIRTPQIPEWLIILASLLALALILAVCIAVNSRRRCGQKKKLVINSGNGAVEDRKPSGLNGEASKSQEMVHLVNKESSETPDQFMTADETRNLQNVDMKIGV

B1: Recombinant mouse E-selectin-human Fc chimera (mE-Ig) (Fc fusion, UniProt Q00690 22-557, looked up, not shown: a dimerising Fc or GST)
chain: WYYNASSELMTYDEASAYCQRDYTHLVAIQNKEEINYLNSNLKHSPSYYWIGIRKVNNVWIWVGTGKPLTEEAQNWAPGEPNNKQRNEDCVEIYIQRTKDSGMWNDERCNKKKLALCYTASCTNASCSGHGECIETINSYTCKCHPGFLGPNCEQAVTCKPQEHPDYGSLNCSHPFGPFSYNSSCSFGCKRGYLPSSMETTVRCTSSGEWSAPAPACHVVECEALTHPAHGIRKCSSNPGSYPWNTTCTFDCVEGYRRVGAQNLQCTSSGIWDNETPSCKAVTCDAIPQPQNGFVSCSHSTAGELAFKSSCNFTCEQSFTLQGPAQVECSAQGQWTPQIPVCKAVQCEALSAPQQGNMKCLPSASGPFQNGSSCEFSCEEGFELKGSRRLQCGPRGEWDSKKPTCSAVKCDDVPRPQNGVMECAHATTGEFTYKSSCAFQCNEGFSLHGSAQLECTSQGKWTQEVPSCQVVQCPSLDVPGKMNMSCSGTAVFGTVCEFTCPDDWTLNGSAVLTCGATGRWSGMPPTCEAPVSPTRP
Q: Which results are given for B1?
A: IL-10 production of adipose-derived hAdMSCs, ratio of FuchMSCs/UhMSCs for E-selectin exposure [1]: 10 fold; IDO in supernatant, ratio FuchAdMSCs/UhAdMSCs, mE-IG (1 µg/ml) [2]: 6.75 ratio; IDO in supernatant, ratio FuchAdMSCs/UhAdMSCs, mE-IG (5 µg/ml) [2]: 7.72 ratio; IDO in supernatant, ratio FuchBMMSCs/UhBMMSCs, mE-IG (1 µg/ml) [2]: 4.71 ratio; IDO in supernatant, ratio FuchBMMSCs/UhBMMSCs, mE-IG (5 µg/ml) [2]: 4.74 ratio; IL-10 in supernatant, ratio FuchAdMSCs/UhAdMSCs, mE-IG (1 µg/ml) [2]: 12.7 ratio; IL-10 in supernatant, ratio FuchAdMSCs/UhAdMSCs, mE-IG (5 µg/ml) [2]: 16 ratio; IL-10 in supernatant, ratio FuchBMMSCs/UhBMMSCs, mE-IG (1 µg/ml) [2]: 3.87 ratio; IL-10 in supernatant, ratio FuchBMMSCs/UhBMMSCs, mE-IG (5 µg/ml) [2]: 4.85 ratio; NO2^-/NO3^- in supernatant, ratio FuchAdMSCs/UhAdMSCs, mE-IG (1 µg/ml) [2]: 5.12 ratio; NO2^-/NO3^- in supernatant, ratio FuchAdMSCs/UhAdMSCs, mE-IG (5 µg/ml) [2]: 5.9 ratio; NO2^-/NO3^- in supernatant, ratio FuchBMMSCs/UhBMMSCs, mE-IG (1 µg/ml) [2]: 3.31 ratio; NO2^-/NO3^- in supernatant, ratio FuchBMMSCs/UhBMMSCs, mE-IG (5 µg/ml) [2]: 5.14 ratio; TGFβ in supernatant, ratio FuchAdMSCs/UhAdMSCs, mE-IG (1 µg/ml) [2]: 12.2 ratio; TGFβ in supernatant, ratio FuchAdMSCs/UhAdMSCs, mE-IG (5 µg/ml) [2]: 12.4 ratio; TGFβ in supernatant, ratio FuchBMMSCs/UhBMMSCs, mE-IG (1 µg/ml) [2]: 8.11 ratio; TGFβ in supernatant, ratio FuchBMMSCs/UhBMMSCs, mE-IG (5 µg/ml) [2]: 8.5 ratio
